T1: CHO produced recombinant Bet v 1 containing a S85A mutation with a C-terminal myc-myc hexahistidine tag … (Betula verrucosa (birch))
T1 chain: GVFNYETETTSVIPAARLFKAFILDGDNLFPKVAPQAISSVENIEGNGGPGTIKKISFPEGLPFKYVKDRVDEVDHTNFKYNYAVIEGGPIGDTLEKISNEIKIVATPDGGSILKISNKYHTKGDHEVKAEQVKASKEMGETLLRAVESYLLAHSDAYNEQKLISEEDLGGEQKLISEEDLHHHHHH

T2: Celery (Api g 1, MyBiosource, Cat #MBS1171376) (Celery, UniProt P49372 1-154, limits assumed)
T2 construct: Bought reagent
T2 sequence (looked up): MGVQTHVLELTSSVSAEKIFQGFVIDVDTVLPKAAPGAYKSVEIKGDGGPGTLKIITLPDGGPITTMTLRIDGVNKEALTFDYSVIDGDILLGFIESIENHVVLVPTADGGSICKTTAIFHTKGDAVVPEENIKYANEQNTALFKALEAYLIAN

T3: Alder (Aln g 1, MyBiosource, Cat #MBS1041484) (Alder, UniProt P38948 2-160, limits assumed)
T3 construct: Bought reagent
T3 sequence (looked up): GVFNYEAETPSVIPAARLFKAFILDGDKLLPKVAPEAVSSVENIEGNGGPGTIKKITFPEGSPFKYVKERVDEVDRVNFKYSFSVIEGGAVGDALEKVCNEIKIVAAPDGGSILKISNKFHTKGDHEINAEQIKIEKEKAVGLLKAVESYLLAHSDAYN

T4: European Hornbeam (Car b 1 isoform 2, MyBiosource, Cat #MBS1043940) (European Hornbeam, UniProt P38950 2-160, limits assumed)
T4 construct: Bought reagent
T4 sequence (looked up): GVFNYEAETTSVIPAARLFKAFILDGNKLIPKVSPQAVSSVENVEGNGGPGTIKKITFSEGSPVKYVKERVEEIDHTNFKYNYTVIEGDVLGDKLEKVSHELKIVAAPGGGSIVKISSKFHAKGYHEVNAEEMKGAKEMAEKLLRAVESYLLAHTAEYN

T5: Apple (Mal d 1, MyBiosource, Cat #MBS1224919) (Apple, UniProt P43211 2-159, limits assumed)
T5 construct: Bought reagent
T5 sequence (looked up): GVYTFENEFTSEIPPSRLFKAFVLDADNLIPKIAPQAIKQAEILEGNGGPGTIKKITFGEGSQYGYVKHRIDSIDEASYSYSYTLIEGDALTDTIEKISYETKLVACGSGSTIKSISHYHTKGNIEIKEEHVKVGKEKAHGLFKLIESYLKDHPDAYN

T6: European Hornbeam (Car b 1 isoform 1A & 1B, MyBiosource, Cat #MBS1200018) (European Hornbeam, UniProt P38949 2-160)
T6 construct: Bought reagent
T6 sequence (looked up): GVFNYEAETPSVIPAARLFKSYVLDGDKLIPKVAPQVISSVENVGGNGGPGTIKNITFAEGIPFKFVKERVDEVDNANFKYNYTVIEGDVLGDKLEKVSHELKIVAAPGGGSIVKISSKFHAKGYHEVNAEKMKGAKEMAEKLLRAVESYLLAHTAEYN

B1: H4H16971P (antibody, human IgG4, V domains shown)
VH: QVQLVESGGGVVQPGRSLRLSCAASGFTFSSYGLHWVRQAPGKGLEWVAVISDDGSYKFYADSMKGRFTISRDNSKNTLYLQMNSLRAEDTAVYYCAKDRGRSGWYYFDYWGQGTLVTVSS
VL: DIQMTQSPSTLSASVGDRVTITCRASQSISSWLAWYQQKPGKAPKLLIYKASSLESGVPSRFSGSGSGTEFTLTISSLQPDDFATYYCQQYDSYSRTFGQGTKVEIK
notes: Fully human antibody with human IgG4 Fc (H4H prefix)
B2: H4H16960P (antibody, human IgG4, V domains shown)
VH: QLQLQESGPGLVRPSETLSLTCTVSGGSISSSNYWWGWIRQPPGKGLEWIGSIYYSGITYYNPSLKSRVTISADTSKDQFSLKLRSVTAADTAVYYCAKLEWLRLDFWGQGTTVTVSS
VL: DIQMTQSPSSVSASVGDRVTITCRASQGISSWLVWYQQKPGKVPKLLIYAASSLQSGVPLRFSGSGSGTDFTLTISSLQPEDFATYYCQQAKSFPLTFGQGTRLEIK
notes: as for B1
B3: H4H16950P (antibody, human IgG4, V domains shown)
VH: QVQLVQSGAEVKKPGASVKVSCKTSGYTFTNYGITWVRQAPGQGLEWMGWISAYNGNTNYAQNVQGRVTMTTDTSTSTAYMEVRSLRSDDTAVYYCARRSSMLHFQHWGQGTLVTVSS
VL: DIVMTQSPDSLAVSLGERATINCKSSQHVLYDSSNENYLAWFQQKPGQPPKLLIYWASTRESGVPDRFSGSGSGTDFTLTISSLQAEDVAVYYCQQYSSAPYTFGQGTKLEIK
notes: as for B1
B4: H4H16943P (antibody, human IgG4, V domains shown)
VH: EVQLVESGGGLVQPGGSLRLSCTASGFMSSMYWMSWVRQAPGKGLEWVSNIKQDGTEKNYVESVKGRFTISRDNAKNSLYLQINSLRGEDTAVYYCARDLYSSSSGYYYYGLDVWGQGTTVTVSS
VL: DIVMTQSPLSLPVTPGEPASISCRSSQSLLHSNKYNYLDWYLQKPGQSPQLLIYLSSNRASGVPDRFSGSGSGTEFTLKISRVEAEDVGIYYCMQALHTPLTFGGGTKVEIK
notes: as for B1
B5: H4H16967P (antibody, human IgG4, V domains shown)
VH: QVQLVESGGGVVQPGRSLRLSCAASGFTFSSYGMHWFRQAPGKGLEWVGVIWSDGSDKKYADSVKGRFTISRDNSKNTLYLLMNSLRDDDTAVYHCAREGGFLYSSSSHFDYWGQGTLVTVSS
VL: AIQMTQSPSSLSASVGDRVTITCRTSQGIRNDLGWYQQKPGKAPKLLIFAASSLQSGVPSRFSGSGSGTDFTLTISSLQPEDFAIYYCLQDYKYPFTFGGGTKVEIK
notes: as for B1
B6: H4H16946P (antibody, human IgG4, V domains shown)
VH: EVQLVESGGGLVQPGGSLRLSCVASGFTFSNYDMNWVRQAPGEGLEWISYISYSDHNIYYIDSVKGRFTISRDNAKNSLYLQMNSLRAEDTAIYYCAREALASSSFDYWGQGTLVTVSS
VL: EIVMTQSPATLSVSPGERVTLSCRASQSVSGNLAWYQQKPGQAPRLLIYSASTGATGVPARFSGSGSGTEFTLTISSLQSEDFALYYCQQYNKWPRTIGQGTKVEIK
notes: as for B1
B7: H4H16992P (antibody, human IgG4 S228P, kappa, V domains shown)
VH: QVQLQESGPGLVKPSETLSLTCSVSGGSITNYFWTWIRQSPGKGLEWIGYIYYSGGTNYNPSLKSRVTISIDTSKNQFSLNMNSVTAADTAVYYCAGSYYYGVDVWGQGTTVTVSS
VL: EIVLTQSPATLSLSPGERATLSCRASQSIKSFLAWYRQKPGQAPRLLIYDASNRPTGIPARFSGSGSGTDFTLTINSLESEDFAVYFCQQRNNWPFTFGPGTKVDIKR
notes: human IgG4 Fc; also called REGN5713; MAB1

Target: T1, CHO produced recombinant Bet v 1 …
Assay: SPR, mAb captured via anti-hFc, 37 C
Protocol: (§1) Equilibrium dissociation constants (KD) for natural Bet v 1 binding to purified anti-Bet v 1 monoclonal antibodies were determined using a real-time surface plasmon resonance biosensor (SPR-Biacore) on a Biacore 4000 instrument. All binding studies were performed in 10 mM HEPES, 150 mM NaCl, 3 mM EDTA, and 0.05% v/v surfactant Tween-20, pH 7.4 (HBS-ET) running buffer at 25° C. and 37° C. […] Association (kₐ) and dissociation (kd) rate constants were determined by fitting the real-time binding sensorgrams to a 1:1 binding model with mass transport limitation using Scrubber 2.0c curve-fitting software. Binding dissociation equilibrium constants (KD) and dissociative half-lives (t½) were calculated from the kinetic rate constants as:

| Binder | 100 nM natural Bet v 1-MHH Bound (RU) | Kd [nM] | koff [s⁻¹] | kon [M⁻¹ s⁻¹] | t½ [min] |
| --- | --- | --- | --- | --- | --- |
| B1 | 60 | 18.6 | 0.012 | 648000 | 1 |
| B2 | 72 | 2.01 | 0.00177 | 879000 | 6.5 |
| B3 | 83 | 5.81 | 0.00125 | 215000 | 9.2 |
| B4 | 0 |  |  |  |  |
| B5 | -1 |  |  |  |  |
| B6 | 97 | 0.655 | 0.000395 | 603000 | 29 |

These binders were tested against T2, Celery (Api g 1, MyBiosource, Cat …) (assay: SPR, mAb captured via anti-hFc, 25 C).
Protocol: (§2) Equilibrium dissociation constants (KD) for different related allergens binding to purified anti-Bet v 1 monoclonal antibodies were determined using a real-time surface plasmon resonance biosensor (SPR-Biacore) on a Biacore 4000 instrument. All binding studies were performed in 10 mM HEPES, 150 mM NaCl, 3 mM EDTA, and 0.05% v/v surfactant Tween-20, pH 7.4 (HBS-ET) running buffer at 25° C. […] Binding studies were performed on the following related allergens: Alder (Aln g 1, MyBiosource, Cat #MBS1041484), Apple (Mal d 1, MyBiosource, Cat #MBS1224919), Carrot (Dau c 1.2, MyBiosource, Cat #MBS1212920), Celery (Api g 1, MyBiosource, Cat #MBS1171376), Celery (Api g 2, MyBiosource, Cat #MBS1047880), European Hornbeam (Car b 1 isoform 1A & 1B, MyBiosource, Cat #MBS1200018), European Hornbeam (Car b 1 isoform 2, MyBiosource, Cat #MBS1043940), Hazel (Cor A 1, MyBiosource, Cat #MBS5304600), and White Oak (Que a 1, MyBiosource, Cat #MBS1258822). […] Association (kₐ) and dissociation (kd) rate constants were determined by fitting the real-time binding sensorgrams to a 1:1 binding model with mass transport limitation using Scrubber 2.0c curve-fitting software. Binding dissociation equilibrium constants (KD) and dissociative half-lives (t½) were calculated from the kinetic rate constants as:

| Binder | 100 nM Analyte Bound (RU) | binding result |
| --- | --- | --- |
| B1 | 0 | no binding (tested: 100 nM) |
| B2 | 0 | no binding (tested: 100 nM) |
| B3 | 0 | no binding (tested: 100 nM) |
| B7 | 1 | no binding (tested: 100 nM) |
| B4 | 0 | no binding (tested: 100 nM) |
| B5 | -1 |  |
| B6 | 1 | no binding (tested: 100 nM) |

These binders were tested against T3, Alder (Aln g 1, MyBiosource, Cat …) (assay: SPR, mAb captured via anti-hFc, 25 C).
Protocol: as §2

| Binder | 100 nM Analyte Bound (RU) | Kd [nM] | koff [s⁻¹] | kon [M⁻¹ s⁻¹] | t½ [min] | binding result |
| --- | --- | --- | --- | --- | --- | --- |
| B1 | 41 | 126 | 0.0118 | 93000 | 1 |  |
| B2 | 29 | 147 | 0.0332 | 226000 | 0.3 |  |
| B3 | 15 | 175 | 0.016 | 91200 | 0.7 |  |
| B7 | 5 |  |  |  |  | no binding (tested: 100 nM) |
| B4 | 1 |  |  |  |  | no binding (tested: 100 nM) |
| B5 | 0 |  |  |  |  | no binding (tested: 100 nM) |
| B6 | 2 |  |  |  |  | no binding (tested: 100 nM) |

The binders below were run against T4, European Hornbeam (Car b 1 isoform 2, …) (assay: SPR, mAb captured via anti-hFc, 25 C).
Protocol: as §2

| Binder | 100 nM Analyte Bound (RU) | Kd [nM] | koff [s⁻¹] | kon [M⁻¹ s⁻¹] | t½ [min] | binding result |
| --- | --- | --- | --- | --- | --- | --- |
| B1 | 23 | 564 | 0.146 | 259000 | 0 |  |
| B2 | 1 |  |  |  |  | no binding (tested: 100 nM) |
| B3 | 0 |  |  |  |  | no binding (tested: 100 nM) |
| B7 |  | 0.617 |  |  |  |  |
| B4 | 183 | 0.335 | 0.000371 | 1.11e+06 | 31 |  |
| B5 | 0 |  |  |  |  | no binding (tested: 100 nM) |
| B6 | 63 | 179 | 0.0138 | 76900 | 0.8 |  |

These binders were tested against T5, Apple (Mal d 1, MyBiosource, Cat …) (assay: SPR, mAb captured via anti-hFc, 25 C).
Protocol: as §2

| Binder | 100 nM Analyte Bound (RU) | Kd [nM] | koff [s⁻¹] | kon [M⁻¹ s⁻¹] | t½ [min] | binding result |
| --- | --- | --- | --- | --- | --- | --- |
| B1 | 25 | 494 | 0.0795 | 161000 | 0.2 |  |
| B2 | 1 |  |  |  |  | no binding (tested: 100 nM) |
| B3 | -1 |  |  |  |  |  |
| B7 | 3 |  |  |  |  | no binding (tested: 100 nM) |
| B4 | -1 |  |  |  |  |  |
| B5 | -2 |  |  |  |  |  |
| B6 | 0 |  |  |  |  | no binding (tested: 100 nM) |

These binders were tested against T6, European Hornbeam (Car b 1 isoform 1A & …) (assay: SPR, mAb captured via anti-hFc, 25 C).
Protocol: as §2

| Binder | 100 nM Analyte Bound (RU) | binding result | Kd [nM] | t½ [min] | koff [s⁻¹] | kon [M⁻¹ s⁻¹] |
| --- | --- | --- | --- | --- | --- | --- |
| B1 | 1 | no binding (tested: 100 nM) |  |  |  |  |
| B2 | 4 | no binding (tested: 100 nM) |  |  |  |  |
| B3 | -1 |  |  |  |  |  |
| B7 | 161 |  | 1.2 | 34 |  |  |
| B4 | 26 |  | 380 | 0.2 | 0.0578 | 152000 |
| B5 | -1 |  |  |  |  |  |
| B6 | 63 |  | 168 | 0.5 | 0.024 | 143000 |

Target: T1, CHO produced recombinant Bet v 1 …
Assay: SPR, mAb captured via anti-hFc, 25 C
Protocol: as §1

| Binder | 100 nM natural Bet v 1- MMH Bound (RU) | Kd [nM] | koff [s⁻¹] | kon [M⁻¹ s⁻¹] | t½ [min] | binding result |
| --- | --- | --- | --- | --- | --- | --- |
| B1 | 58 | 9.48 | 0.00386 | 407000 | 3 |  |
| B2 | 64 | 0.789 | 0.000443 | 562000 | 26 |  |
| B3 | 70 | 2.21 | 0.000335 | 151000 | 35 |  |
| B4 | 0 |  |  |  |  | no binding (tested: 100 nM) |
| B5 | 0 |  |  |  |  |  |
| B6 | 83 | 0.348 | 0.000141 | 405000 | 82 |  |
